In patent US20030186877A1 (BRIGHAM AND WOMEN S HOSPITAL, published 2003):
Square brackets hold non-standard residues; d marks the D form. * marks the point of attachment. dBpa = N[C@H](Cc1ccc(C(=O)c2ccccc2)cc1)C(=O)O; Boc = CC(C)(C)OC(=O)*; Aib = CC(C)(N)C(=O)O

Key:
γ-secretase [1] = test: cell-based or functional assay
γ-secretase [2] = test: cell-based or functional assay; remark: listed apart in the source

Binder | IC50: concentration of compound that reduced production of total Aβ by 50% in a cell-based assay using CHO cells stably transfected with human APP (γ-secretase [1]) [µM] | other results
Boc-[dV]G[Aib][dV][dV][dBpa][Aib][dThr(OBz)][dV][Aib]-OMe [Boc-D-Val-Gly-Aib-D-Val-D-Val-D-BPA-Aib-D-Thr(OBz)-D-Val-Aib-OMe] | – | IC50 in the same cell-based assay using CHO cells stably transfected with human APP (production of total Aβ) (γ-secretase [2]): 0.1 µM
Boc-[Aib]VVI[Aib][Thr(OBz)]V[Aib]-OMe [Boc-Aib-Val-Val-Ile-Aib-Thr(OBz)-Val-Aib-OMe] | 6 | –
Boc-A[Thr(OBz)][Aib]IV[Aib]-OMe [Boc-Ala-Thr(OBz)-Aib-Ile-Val-Aib-OMe] | 25 | –
Boc-[Aib]AL[Aib]AL[Aib]AL[Aib]-OMe (SMILES COC(=O)C(C)(C)NC(=O)[C@H](CC(C)C)NC(=O)[C@H](C)NC(=O)C(C)(C)NC(=O)[C@H](CC(C)C)NC(=O)[C@H](C)NC(=O)C(C)(C)NC(=O)[C@H](CC(C)C)NC(=O)[C@H](C)NC(=O)C(C)(C)NC(=O)OC(C)(C)C) [Boc-Aib-Ala-Leu-Aib-Ala-Leu-Aib-Ala-Leu-Aib-O-methylester] | – | IC50 of blocking Aβ production in APP-transfected cells (γ-secretase [2]): 2 µM
Boc-GV[Aib]IA[Thr(OBz)][Aib]IV[Aib]-OMe [Boc-Gly-Val-Aib-Ile-Ala-Thr(OBz)-Aib-Ile-Val-Aib-OMe] | 5 | –
Boc-[Aib]IA[Thr(OBz)][Aib]IV[Aib]-OMe [Boc-Aib-Ile-Ala-Thr(OBz)-Aib-Ile-Val-Aib-OMe] | 10 | –
Boc-G[Aib]VVI[Aib][Thr(OBz)]V[Aib]-OMe [Boc-Gly-Aib-Val-Val-Ile-Aib-Thr(OBz)-Val-Aib-OMe] | 3 | –

Second part, led by results:

IC50: concentration of compound that reduced production of total Aβ by 50% in a cell-based assay using CHO cells stably transfected with human APP (γ-secretase [1]) [µM] | Binder | other results
3 | Boc-VG[Aib]VVI[Aib][Thr(OBz)]V[Aib]-OMe [Boc-Val-Gly-Aib-Val-Val-Ile-Aib-Thr(OBz)-Val-Aib-OMe] | –
12 | Boc-VI[Aib][Thr(OBz)]V[Aib]-OMe [Boc-Val-Ile-Aib-Thr(OBz)-Val-Aib-OMe] | –
15 | Boc-IA[Thr(OBz)][Aib]IV[Aib]-OMe [Boc-Ile-Ala-Thr(OBz)-Aib-Ile-Val-Aib-OMe] | –
6 | Boc-VVI[Aib][Thr(OBz)]V[Aib]-OMe [Boc-Val-Val-Ile-Aib-Thr(OBz)-Val-Aib-OMe] | –
2 | Boc-V[Aib]IA[Thr(OBz)][Aib]IV[Aib]-OMe [Boc-Val-Aib-Ile-Ala-Thr(OBz)-Aib-Ile-Val-Aib-OMe] | –
